Test results reported in paper PMC4482361 (Organic & biomolecular chemistry, 2011).

How the values were obtained:
[1] = molecular target: T1, thymidine monophosphate kinase (TMK) (Escherichia coli, UniProt P0A720); test: coupled assay with ACK, HPLC; type: biochemical; details: phosphate donor; same
T1 sequence (P0A720 1-213): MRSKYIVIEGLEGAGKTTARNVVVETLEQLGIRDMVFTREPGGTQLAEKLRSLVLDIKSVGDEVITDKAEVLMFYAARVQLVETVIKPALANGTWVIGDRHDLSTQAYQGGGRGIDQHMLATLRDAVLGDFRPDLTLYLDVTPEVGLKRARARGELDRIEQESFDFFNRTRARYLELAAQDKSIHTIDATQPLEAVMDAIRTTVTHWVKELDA

SEC = molecular target: the molecule itself; test: SEC

Row | Molecule | coupled assay with ACK, HPLC [1] | stoichiometry N (SEC)
1 | Nc1ncnc2c1ncn2[C@@H]1O[C@H](COP(=O)(O)OP(=O)(O)OP(=O)(O)O)[C@@H](O)[C@H]1O [ATP] | ATP serves as a phosphate donor thereby converting into ADP | –
2 | RavAMT (TDP-3-keto-6-deoxy-D-galactose-3-aminotransferase) (enzyme, Streptomyces ravidus, UniProt D1H0I5 1-369, looked up) MKVPYLDLKGPHTEIRAELDAAYHRVVDSGWFVLGEEVRAFEEEYAAYCGAAHCVSVATGCDALELALRALDIGPGDEVVVPSATYIATWLAVSETGADVVPVEVDPDTHLLDPAAVEAAVTPATRAVMPVHLYGQPADLPALRRVADRHGLALIDDAAQAHGARLNGTRVGGGGLATATAFSFYPGKNLGALGDGGGILTDDAELAERLRLLRNYGSRRKYHHELKSTNSRLDELHAAVLRAKLPHLDRWNARRAEIAERYRAAFADLPGLRPTAVPEGAEPSWHLYVVCCDDRDAVQRSLTDAGVGTLIHYPVPVHLSPAYADEKRWPAGAFPRAEAIAAQVLSLPMGPHLSDADVSYVIEAVRAAV | – | 2
3 | RavNMT (TDP-3-amino-3,6-dideoxy-D-galactose-N,N-dimethyltransferase) (enzyme, Streptomyces ravidus, UniProt D1H0I7 1-265, looked up) MSTLSVSQPGTPPTPADVEQAYGAEHADVYDAIYRGRGRDYAAEADAFLAVLRTRRPEITSLLDVACGTGAHLAALRGSVDHVEGVELSPWMHTLATRQLPGVAVHQDDMRSFNLSRRFSAVTCLFSSVGYLKSVEDLRRTLRTFRAHVAPGGVALVEPWWFPETFLDGYVGSSLVEVDGRTIARVSHTVRAGSTSRMTVEYTVAEPVNGVRRFSDLHVLSLFTREQYEDAFERAGFAVEFLKDGPSGRGLFLGVAPETTDGGPR | – | 2
4 | RavIM (TDP-4-keto-6-deoxy-D-glucose-3,4-ketoisomerase) (enzyme, Streptomyces ravidus, UniProt D1H0I6 1-156, looked up) MTDTTAATGTTAGTDVSRVGKVRPCALMKLQTIGDPRGQLAVVEGAKDIGFPVKRLFYLYDLPTSSVRGDHAHRNLEQFVIPINGSFDVAVDDTVDTAVCRLDDPGQGLYIGPMVWNSLVNFSEGAIALVLASEHYDEADYYRRYDEFLADAGARP | – | 2
